Assay: Particle size of heparin-DOCA solutions with solubilizers by electrophoretic light scattering
Assay type: physicochemical
Settings: aqueous 1 mg/ml heparin-DOCA solution, solubilizer added at 0.1 mg/ml, ELS-8,000, N.D. = particles were not detected
Description: To measure the formation of self-assembled nanoparticles in aqueous solutions of heparin-DOCA and to observe the prevention of particle formation due to a solubilizer, the solubilizers shown in Table 1 were added at a concentration of 0.1 mg/ml to 1 mg/ml of heparin-DOCA solution, and electrophoretic light scattering spectrophotometry (ELS-8,000) was used to measure the size of particles in the solution.

With Heparin-Deoxycholic Acid [Heparin-DOCA] the “Particle Size (nm)” value was 369.5 nm and the “Particle Size (nm)” value (listed as heparin-deoxycholic acid) was 370 nm.

Reference: patent publication US20100021538A1, “PHARMACEUTICAL COMPOSITIONS CONTAINING HEPARIN DERIVATIVES” (priority 2008, published 2010)
